This note sets out measurements from article doi:10.1101/2022.04.08.487687, “In Silico Improvement of Highly Protective Anti-Malarial Antibodies” (bioRxiv, 2022).

As a reminder, the Kd is the concentration at which binding is half-saturated.

For the experiment, the target named is T1, peptide 21 (PfCSP residues 101-115), biotinylated (Plasmodium falciparum 3D7, UniProt Q7K740, also: biotin, position not given here).
T1 construct: Biotinylated probe used in AlphaLISA and BLI; also called Pep21; P21
T1 chain: NPDPNANPNVDPNAN
Kind of experiment: BLI; Octet Red384; biotinylated Pep21 immobilised on streptavidin biosensors; Fab serially diluted from 1000 to 62.5 nM; 30°C; PBS + 1% BSA; global fit, 1:1 Langmuir model. Conditions: both partners purified.

No end group written: not given here.

B1: P3-43 Fab (m43.151 variant P100KH) (Fab, V domains shown)
VH: QVHLVQSGAEVKKPGASVKVSCKASGYTFTSYAIHWVRQAPGQRLEWMGWIKGGNGNTRYSQKFQDRVTITRDTSASTAYMELSSLRSEDTAVYYCALLTVITKDDAFDIWGQGTMVTVSS
VL: not shown
notes: as the heavy chain of m5 (m43.151) with the stated change; as the light chain of m5 (m43.151), no change stated; Best m43.151-based variant; source: Fab produced from the antibody
Consider B1, for which the Kd turned out to be 8.9 ± 0.5 nM.
